{"source": "patent US20030129688A1", "about": "(published 2003)", "key": {"[1]": {"target": "ErbB-3 receptor-Ig fusion (human) (UniProt P21860)", "assay": "phage ELISA, competition with soluble ErbB-3-Ig"}, "[2]": {"target": "ErbB-4 receptor-Ig fusion (human) (UniProt Q15303)", "sequence (Q15303 other isoform, or with tags, fused parts or gaps)": "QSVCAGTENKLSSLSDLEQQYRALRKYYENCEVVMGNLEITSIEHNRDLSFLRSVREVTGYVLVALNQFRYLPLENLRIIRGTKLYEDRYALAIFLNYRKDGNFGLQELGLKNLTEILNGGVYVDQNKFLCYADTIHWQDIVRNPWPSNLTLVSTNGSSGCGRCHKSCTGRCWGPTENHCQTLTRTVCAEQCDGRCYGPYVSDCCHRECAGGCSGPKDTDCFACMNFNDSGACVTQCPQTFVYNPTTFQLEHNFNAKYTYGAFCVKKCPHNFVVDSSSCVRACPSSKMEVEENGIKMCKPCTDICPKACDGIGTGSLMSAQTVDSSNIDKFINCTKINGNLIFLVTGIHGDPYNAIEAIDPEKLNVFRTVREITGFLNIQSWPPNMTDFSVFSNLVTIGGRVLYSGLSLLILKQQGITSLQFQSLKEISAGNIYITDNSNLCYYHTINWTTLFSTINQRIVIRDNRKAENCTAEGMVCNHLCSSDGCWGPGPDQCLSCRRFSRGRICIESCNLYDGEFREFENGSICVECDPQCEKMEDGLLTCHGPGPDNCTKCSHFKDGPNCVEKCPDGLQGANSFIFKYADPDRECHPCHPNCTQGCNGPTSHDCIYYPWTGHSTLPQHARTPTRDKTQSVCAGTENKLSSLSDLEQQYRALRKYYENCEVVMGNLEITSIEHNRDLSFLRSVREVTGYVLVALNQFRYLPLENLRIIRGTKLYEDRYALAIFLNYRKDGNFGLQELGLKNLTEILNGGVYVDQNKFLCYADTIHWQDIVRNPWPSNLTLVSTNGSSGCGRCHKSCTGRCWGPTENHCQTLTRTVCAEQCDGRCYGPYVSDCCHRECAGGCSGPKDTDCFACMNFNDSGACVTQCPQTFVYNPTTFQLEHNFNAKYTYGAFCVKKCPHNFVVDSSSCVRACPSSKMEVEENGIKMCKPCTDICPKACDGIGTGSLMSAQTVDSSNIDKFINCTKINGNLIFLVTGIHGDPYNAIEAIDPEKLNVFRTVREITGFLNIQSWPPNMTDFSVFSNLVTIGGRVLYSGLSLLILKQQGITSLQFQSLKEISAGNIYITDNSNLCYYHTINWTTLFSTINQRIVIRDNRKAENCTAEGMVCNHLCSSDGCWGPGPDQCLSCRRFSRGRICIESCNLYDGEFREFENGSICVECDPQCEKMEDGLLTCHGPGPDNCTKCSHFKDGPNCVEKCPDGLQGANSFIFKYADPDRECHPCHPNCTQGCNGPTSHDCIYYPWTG", "assay": "phage ELISA, competition with soluble ErbB-4-Ig"}, "[3]": {"target": "ErbB-2/3 receptor-Ig fusion (human, UniProt P04626 23-652; P04626 23-645; P21860 20-643; P04626 23-645)", "assay": "phage ELISA, competition with soluble ErbB-2/3-Ig", "procedure": "(§1) Microtiter plates (Nunc Maxisorp™ 96-well plates, Inter Med, Denmark) for phage ELISA were prepared as follows. The wells were precoated overnight with 0.5 μg of rabbit anti-human IgG (Fc gamma fragment-specific) antibodies (Jackson Immunoresearch, West Grove, Pa.) in 100 μL 50 mM NaCO₃ (pH 9.6). The wells were blocked for 30 minutes (min) with 200 μL PBS containing 0.1% bovine serum albumin (BSA) and rinsed with wash buffer (PBS containing 0.05% Tween 20™). The wells were then coated with 0.1 μg ErbB-2/3-Ig in binding buffer (PBS, 0.1% BSA, 0.05% Tween 20™) for 1 h, and washed again.\n(§2) Following incubation for 2 h at room temperature, plates were washed extensively and treated with a 1:900 dilution of anti-M13 horseradish peroxidase conjugate (Pharmacia, Piscataway, N.J.) for 20 min. The amount of phage binding was determined by assaying horseradish peroxidase activity using o-phenylenediamine dihydrochloride) substrate solution (Sigma Chemical Company, St. Louis, Mo.)."}, "[4]": {"target": "ErbB-3 receptor-Ig fusion (human) (UniProt P21860)", "assay": "125I-HRG-β1 177-244 displacement, ErbB-3-Ig on plate"}, "[5]": {"target": "ErbB-4 receptor-Ig fusion (human) (UniProt Q15303)", "assay": "125I-HRG-β1 177-244 displacement, ErbB-4-Ig on plate"}, "[6]": {"target": "ErbB-2/3 receptor-Ig fusion (human) (UniProt P04626)", "assay": "phage ELISA, competition with soluble ErbB-2/3-Ig"}, "[7]": {"target": "T1, ErbB-3 receptor-Ig fusion (human, UniProt P21860 20-643; P21860 20-636)", "assay": "phage ELISA, competition with soluble ErbB-3-Ig"}, "[8]": {"target": "T2, ErbB-4 receptor-Ig fusion (human, UniProt Q15303 26-651; Q15303 26-640)", "T2 sequence (Q15303 other isoform, or with tags, fused parts or gaps)": "as above", "assay": "phage ELISA, competition with soluble ErbB-4-Ig"}, "[9]": {"target": "T1, ErbB-3 receptor-Ig fusion", "assay": "phage ELISA, competition with soluble ErbB-3-Ig; reference"}, "[10]": {"target": "T2, ErbB-4 receptor-Ig fusion", "assay": "phage ELISA, competition with soluble ErbB-4-Ig; reference"}, "[11]": {"target": "T1, ErbB-3 receptor-Ig fusion", "assay": "phage ELISA, competition with soluble ErbB-3-Ig", "remark": "listed apart in the source", "procedure": "as §1, §2"}}, "note": "Read-outs that look alike come from different tables or passages of the source. Ends that are not written are not given here.", "data": [{"binder": "HRG2 (HRG-β1 177-244 fused to pIII 247, displayed on phage) (ligand, human, UniProt Q02297-6 177-244, looked up, not shown: large carriers, monovalent phage display; also called pHRG2-g3) SHLVKCAEKEKTFCVNGGECFMVKDLSNPSRYLCKCPNEFTGDRCQNYVMASFYKHLGIEFMEAEELY", "values": [{"measurement": "EC50", "setting": "[1]", "result": 0.013, "unit": "µM"}, {"measurement": "EC50", "setting": "[2]", "result": 0.019, "unit": "µM"}, {"measurement": "EC50", "setting": "[3]", "result": 0.006, "unit": "µM"}]}, {"binder": "recombinantly produced HRG-β1 177-244 (ligand, human, UniProt Q02297-6 177-244, looked up) SHLVKCAEKEKTFCVNGGECFMVKDLSNPSRYLCKCPNEFTGDRCQNYVMASFYKHLGIEFMEAEELY", "values": [{"measurement": "EC50", "setting": "[4]", "result": 0.009, "unit": "µM"}, {"measurement": "EC50", "setting": "[5]", "result": 0.0148, "unit": "µM"}]}, {"binder": "HRG7 (HRG-β1 177-228 fused to pIII 247, displayed on phage) (ligand, human, UniProt Q02297-6 177-228, looked up, not shown: large carriers, not fully specified (C-terminus); ends and bridges not checked) SHLVKCAEKEKTFCVNGGECFMVKDLSNPSRYLCKCPNEFTGDRCQNYVMAS", "values": [{"measurement": "EC50", "setting": "[6]", "result": 0.042, "unit": "µM"}]}, {"binder": "HRG8 (HRG-β1 177-228 fused via (GGGS)3 to pIII 323, displayed on phage) (ligand, human, not shown: large carriers, monovalent phage display; also called pHRG8-g3; wild-type HRG-β1 EGF-phage) SHLVKCAEKEKTFCVNGGECFMVKDLSNPSRYLCKCPNEFTGDRCQNYVMASGGGSGGGSGGGS", "values": [{"measurement": "EC50", "setting": "[7]", "result": 0.135, "unit": "µM"}, {"measurement": "EC50", "setting": "[8]", "result": 0.163, "unit": "µM"}, {"measurement": "EC50", "setting": "[3]", "result": 0.011, "unit": "µM"}, {"measurement": "EC50 (wt)/EC50 (mut)", "setting": "[9]", "result": 1, "unit": "ratio"}, {"measurement": "EC50 (wt)/EC50 (mut)", "setting": "[10]", "result": 1, "unit": "ratio"}]}, {"binder": "HRG-β1 177-244 F216A displayed on phage (ligand, not shown: large carriers; small tags and cut ends, from pHRG2-g3; monovalent phage display) SHLVKCAEKEKTFCVNGGECFMVKDLSNPSRYLCKCPNEATGDRCQNYVMASFYKHLGIEFMEAEELY", "values": [{"measurement": "EC50", "setting": "[11]", "result": 0.5, "unit": "µM"}]}]}
